Results on one substance are retold here after publication PMC6060171.

Broadly, the stoichiometry N is a count of units in the complex or per binding partner.

This test concerns the target AcrIIA6 (anti-CRISPR protein of Streptococcus thermophilus virulent phage D1811, product of gene D1811_026) (Streptococcus thermophilus phage D1811). Briefly: SEC; gel filtration profile of purified AcrIIA6; size exclusion chromatography in 20 mM Hepes pH 7.5, 150 mM NaCl.

“AcrIIA6 (anti-CRISPR protein of Streptococcus thermophilus virulent phage D1811, product of gene D1811_026) (natural protein)” displayed a stoichiometry N of 2.
